{"source": "patent US20200277377A1", "about": "(WUXI BIOLOGICS SHANGHAI, published 2020)", "key": {"human CTLA-4.ECD.hFc": {"biological_target": "T1, human CTLA-4.ECD.hFc (human, UniProt P16410 36-161)", "T1 construct": "extracellular domain; also called hCTLA-4.ECD.hFc; not shown: human Fc tag (hFc)", "T1 sequence (looked up)": "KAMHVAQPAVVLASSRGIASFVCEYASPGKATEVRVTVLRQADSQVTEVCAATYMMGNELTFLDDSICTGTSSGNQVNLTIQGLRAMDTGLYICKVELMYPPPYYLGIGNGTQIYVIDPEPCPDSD", "assay": "competition ELISA, coated human CTLA-4.ECD.hFc, competitor CD86-6×His", "method": "Plates were coated with human CTLA-4.ECD.hFc (0.5 μg/mL) at 4° C. for 16-20 hours. […] After washing three times with PBS containing 0.05% Tween 20, biotinylated anti-His tag antibody was 1:2000 diluted and added. The plates were incubated at room temperature for 1 hour. The bound ligands were detected by HRP conjugated streptavidin (1:20000). The color was developed by dispensing 100 μL of TMB substrate for 8 mins, and then stopped by 100 μL of 2N HCl."}, "[1]": {"biological_target": "T2, full length human CTLA-4 on cells (human, UniProt P16410 36-223)", "T2 construct": "whole, on cells; also called CTLA-4-expressing cell line", "T2 sequence (looked up)": "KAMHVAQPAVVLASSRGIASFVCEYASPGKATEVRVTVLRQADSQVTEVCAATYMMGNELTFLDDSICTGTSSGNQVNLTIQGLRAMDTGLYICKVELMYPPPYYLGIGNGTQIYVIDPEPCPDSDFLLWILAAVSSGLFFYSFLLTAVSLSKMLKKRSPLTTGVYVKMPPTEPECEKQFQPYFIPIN", "assay": "FACS on human CTLA4 expression 293F cell line", "method": "A number of 1×10⁵ cells per well was added to each well of a 96-well plate and centrifuged at 1500 rpm for 4 minutes at 4° C. before removing the supernatant. Serial dilutions of test antibodies, positive and negative controls were added to the resuspended cells and incubated for 1 hour at 4° C. The cells were washed two times with 200 μL DPBS containing 1% BSA. PE conjugated goat anti-human IgG (1:100) diluted in DPBS containing 1% BSA was added to the cells and incubated at 4° C. for 1 hour. Additional washing steps were performed two times with 200 μL DPBS containing 1% BSA followed by centrifugation at 1500 rpm for 4 minutes at 4° C. Finally, the cells were resuspended in 100 μL DPBS containing 1% BSA and fluorescence values were measured by flow cytometry and analyzed by FlowJo."}, "human CTLA-4.ECD-6×His [2]": {"biological_target": "T3, human CTLA-4.ECD-6×His (human, UniProt P16410 36-161)", "T3 construct": "extracellular domain; also called WBP316.hCTLA-4.ECD-6×His; hCTLA4-His (WT)", "T3 sequence": "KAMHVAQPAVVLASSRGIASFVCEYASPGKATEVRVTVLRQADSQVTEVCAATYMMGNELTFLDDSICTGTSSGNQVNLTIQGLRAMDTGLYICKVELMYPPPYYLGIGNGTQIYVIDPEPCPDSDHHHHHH", "assay": "ELISA, coated human CTLA-4.ECD-6×His", "method": "ELISA was used to test binding of anti-human CTLA-4 antibodies to human, murine and cynomolgus monkey CTLA-4 protein. A 96-well plate was coated with human CTLA-4.ECD-6×His (1.0 μg/mL), cynomoguls monkey CTLA-4.ECD-6×His (0.5 μg/mL) or mouse CTLA-4.ECD-6×His (0.5 μg/mL) at 4° C. for 16-20 hours. After 1 hour blocking with 2% BSA in DBPS, testing antibodies, as well as positive and negative control antibodies were added to the plates and incubated at room temperature for 1 hour. The binding of the antibodies to the plates were detected by HRP-conjugated goat anti-human IgG antibody (1:5000 dilution) with 1 hour incubation. The color was developed by dispensing 100 μL of TMB substrate for 8 mins, and then stopped by 100 μL of 2N HCl."}, "human CTLA-4.ECD-6×His [3]": {"biological_target": "T3, human CTLA-4.ECD-6×His", "assay": "capture ELISA: W3162-1.154.8-z35 captured on anti-human Fc, hCTLA4-His supernatant titrated (ng/ml), HRP-anti-His [C]"}, "hCTLA4_ECD.His (N145Q)": {"biological_target": "T4, hCTLA4_ECD.His (N145Q) (human, UniProt P16410 36-161)", "T4 construct": "extracellular domain; Glycosylation-site mutein, expressed in HEK293F cells; also called CTLA-4 N145Q", "T4 sequence (looked up)": "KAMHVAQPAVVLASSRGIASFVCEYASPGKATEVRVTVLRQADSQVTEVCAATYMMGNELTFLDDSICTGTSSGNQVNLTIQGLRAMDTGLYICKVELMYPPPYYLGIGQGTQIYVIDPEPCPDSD", "assay": "capture ELISA: W3162-1.146.19-z12 captured on anti-human Fc, hCTLA4-His mutein supernatant titrated (ng/ml), HRP-anti-His [B]"}, "Murine CTLA-4.ECD-6×His": {"biological_target": "T5, Murine CTLA-4.ECD-6×His (mouse, UniProt P09793 36-161)", "T5 construct": "extracellular domain; Bought; also called mouse CTLA-4.ECD-6×His; mouse CTLA-4 ECD", "assay": "SPR, antibody captured on anti-human Fc, CTLA-4.ECD-6×His as analyte, 1:1 fit", "method": "Biacore T200, Series S Sensor Chip CMS, Amine Coupling Kit, and 10×HBS-EP were purchased from GE Healthcare. […] In immobilization step, the activation buffer was prepared by mixing 400 mM EDC and 100 mM NHS immediately prior to injection. The CM5 sensor chip was activated for 420 s with the activation buffer. 30 μg/mL of goat anti-human IgG Fcγ antibody in 10 mM NaAc (pH 4.5) was then injected to Fc1-Fc4 channels for 200 s at a flow rate of 5 μL/min. The chip was deactivated by 1 M ethanolamine-HCl (GE). Then the antibodies were captured on the chip. Briefly, 4 μg/mL antibodies in running buffer (HBS-EP+) was injected individually to Fc3 channel for 30 s at a flow rate of 10 μL/min. […] Regeneration buffer (10 mM Glycine pH 1.5) was injected at 10 μL/min for 30 s following every dissociation phase.\nThe binding kinetics of these antibodies were measured using SPR. The antibodies were captured on immobilized anti-human Fc and CTLA-4-ECD at different concentration was injected orderly. The sensorgrams for reference channel and buffer channel were subtracted from the test sensorgrams. The data was used for 1:1 binding analysis on human, monkey and mouse CTLA-4.ECD-6×His."}}, "data": [{"binder": "W3162_1.154.8-z35-uAb.IgG1K (antibody, V domains shown, Humanized; label says IgG1K) VH: QVQLVQSGAEVKKPGSSVKVSCKASGYTFTNYFMNWVRQAPGQGLEWMGRVDPEQGRADYAEKFKKRVTITADKSTSTAYMELSSLRSEDTAVYYCARRAMDNYGFAYWGQGTLVTVSS VL: EIVLTQSPDFQSVTPKEKVTITCSANSALSYMYWYQQKPDQSPKLWVHGTSNLASGVPSRFSGSGSGTDFTLTINSLEAEDAATYYCHHWSNTQWTFGGGTKVEIK", "values": [{"measurement": "IC50", "setting": "human CTLA-4.ECD.hFc", "value": 0.5, "unit": "nM"}, {"measurement": "EC50", "setting": "[1]", "value": 0.66, "unit": "nM"}, {"measurement": "EC50", "setting": "human CTLA-4.ECD-6×His [2]", "value": 0.04, "unit": "nM"}, {"measurement": "EC50 (read off the curve)", "setting": "human CTLA-4.ECD-6×His [3]", "value": "~0.003", "unit": "mg/L"}]}, {"binder": "W3162-1.146.19-z12-uAb.IgG1K (antibody, V domains shown, Humanized; label says IgG1K) VH: QVQLQESGPGLVKPSETLSLTCSVTYHTITSGYDWTWIRKPPGKGMEWIGYISYSGNTNYNPSLKSRVTISRDTSKNQFFLKLSSVTAADTAVYYCASMMVPHYYVMDAWGQGTLVTVSS VL: DIVMTQTPLSLSVTPGQPASISCRSSQSLLNSDGNTYLYWYLQKPGQSPQLLIYLVSKLGSGVPNRFSGSGSGTDFTLKISRVEAEDVGVYYCVQGTHDPWTFGGGTKVEIK", "values": [{"measurement": "IC50", "setting": "human CTLA-4.ECD.hFc", "value": 0.71, "unit": "nM"}, {"measurement": "EC50", "setting": "[1]", "value": 1.58, "unit": "nM"}, {"measurement": "EC50", "setting": "human CTLA-4.ECD-6×His [2]", "value": 0.03, "unit": "nM"}, {"measurement": "EC50 (read off the curve)", "setting": "hCTLA4_ECD.His (N145Q)", "value": "~0.09", "unit": "mg/L"}, {"measurement": "Kd", "setting": "Murine CTLA-4.ECD-6×His", "value": 1.39, "unit": "nM"}, {"measurement": "koff", "setting": "Murine CTLA-4.ECD-6×His", "value": 0.000239, "unit": "s⁻¹"}, {"measurement": "kon", "setting": "Murine CTLA-4.ECD-6×His", "value": 172000, "unit": "M⁻¹ s⁻¹"}]}]}
